Test results reported in patent US20200024360A1 (Janssen / Centocor, published 2020).

Experiments:
[1] = target: T1, chimpanzee PSMA, full length (Pan troglodytes, UniProt Q04609 1-750 (human entry)); assay: FACS, whole cell binding, chimp PSMA HEK; calculated EC50
T1 construct: On transfected HEK293F cells; also called chimp PSMA; H2Q3K5_PANTR
T1 chain: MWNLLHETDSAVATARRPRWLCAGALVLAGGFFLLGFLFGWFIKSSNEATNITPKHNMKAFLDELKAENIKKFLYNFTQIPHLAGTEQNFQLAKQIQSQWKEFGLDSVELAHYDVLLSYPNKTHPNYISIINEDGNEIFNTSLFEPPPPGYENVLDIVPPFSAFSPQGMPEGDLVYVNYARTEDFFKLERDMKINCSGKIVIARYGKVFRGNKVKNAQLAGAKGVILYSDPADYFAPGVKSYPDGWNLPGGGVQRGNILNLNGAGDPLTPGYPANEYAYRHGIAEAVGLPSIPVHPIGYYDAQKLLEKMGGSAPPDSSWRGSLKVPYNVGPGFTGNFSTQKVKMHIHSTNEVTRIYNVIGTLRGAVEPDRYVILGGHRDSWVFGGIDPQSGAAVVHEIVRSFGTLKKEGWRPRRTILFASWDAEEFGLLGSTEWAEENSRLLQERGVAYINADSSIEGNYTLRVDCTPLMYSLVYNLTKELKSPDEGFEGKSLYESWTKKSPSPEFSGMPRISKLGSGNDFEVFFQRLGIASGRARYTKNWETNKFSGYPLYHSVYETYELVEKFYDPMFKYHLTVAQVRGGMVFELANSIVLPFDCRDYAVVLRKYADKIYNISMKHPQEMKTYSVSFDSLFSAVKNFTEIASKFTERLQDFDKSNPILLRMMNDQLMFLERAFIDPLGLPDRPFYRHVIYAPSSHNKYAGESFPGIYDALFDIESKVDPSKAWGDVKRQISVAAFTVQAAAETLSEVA
Description: (§1) PSMA×CD3 bispecific antibodies were tested for binding to PSMA positive cell lines LNCAP, human PSMA-HEK, Chimpanzee-PSMA-HEK and Cynomolgous monkey PSMA-HEK. To assess the binding capabilities of the PSMA bispecific antibodies, the cell-binding assay was utilized (described previously). Briefly, PSMA expressing tumor cells are bound by bispecific antibodies at known concentrations and the bound antibody is detected by an anti-human kappa light chain PE conjugated detection reagent (Invitrogen). The Mean Fluorescents Intensity (MFI) is the measure of bound bispecific antibody. The MFI is converted to a relative EC₅₀. EC₅₀ is a commonly used dose-response curve, where the half maximal effective concentration or the EC₅₀ point is defined as the inflection point of the curve. EC₅₀ s were determined by measuring cell bound bispecific and known concentrations. […] The dose response curves were then diluted down to that of background or no bispecific binding. The inflection point of this curve reflects the EC₅₀ point. The calculated EC₅₀ is determined by taking the ug/ml amount of bispecific antibody at the EC₅₀ point and converting it to a molarity value based on the MW of the bispecific antibody. Bispecific antibodies were normalized for protein concentration and then incubated with the same number of cells expressing either human or cyno PSMA. The MFI at each concentration was collected by flow cytometry and plotted as a function of concentration. Data was transformed via log 10 and then plotted. Nonlinear regression of binding curves was done to determine EC₅₀ s. These relative values were used for ranking PSMA binding to target cells.

[2] = target: T2, Cynomolgous monkey PSMA, full length (Macaca fascicularis, UniProt Q04609 1-750 (human entry)); assay: FACS, whole cell binding, cyno PSMA HEK
T2 construct: On transfected HEK293F cells; also called cyno PSMA; EHH56646.1
T2 chain: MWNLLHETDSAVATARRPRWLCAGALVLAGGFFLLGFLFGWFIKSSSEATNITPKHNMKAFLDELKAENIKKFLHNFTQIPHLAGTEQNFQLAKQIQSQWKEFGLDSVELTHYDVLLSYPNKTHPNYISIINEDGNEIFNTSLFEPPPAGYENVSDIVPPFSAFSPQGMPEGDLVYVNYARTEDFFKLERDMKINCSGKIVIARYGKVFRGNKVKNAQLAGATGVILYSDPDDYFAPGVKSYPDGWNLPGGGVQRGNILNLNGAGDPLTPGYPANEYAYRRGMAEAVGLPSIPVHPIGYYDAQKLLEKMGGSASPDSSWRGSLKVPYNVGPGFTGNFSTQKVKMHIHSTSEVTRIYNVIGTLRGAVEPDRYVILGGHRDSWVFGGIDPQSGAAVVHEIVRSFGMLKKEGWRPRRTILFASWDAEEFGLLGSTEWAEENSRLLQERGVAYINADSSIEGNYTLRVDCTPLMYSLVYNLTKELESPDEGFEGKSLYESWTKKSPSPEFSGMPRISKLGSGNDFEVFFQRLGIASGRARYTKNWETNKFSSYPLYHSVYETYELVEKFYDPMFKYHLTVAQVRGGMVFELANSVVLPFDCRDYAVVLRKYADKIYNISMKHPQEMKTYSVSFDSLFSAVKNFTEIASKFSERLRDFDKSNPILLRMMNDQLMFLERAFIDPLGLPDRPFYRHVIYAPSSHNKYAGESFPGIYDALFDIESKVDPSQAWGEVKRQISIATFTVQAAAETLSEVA
Description: as §1

[3] = target: T3, human PSMA (prostate specific membrane antigen), full length (human, UniProt Q04609 1-750); assay: FACS, whole cell binding, LNCaP; calculated EC50
T3 construct: On LNCaP or C4-2B cells (endogenous) or transduced HEK293F cells; also called FOLH1_HUMAN; hPSMA
Description: as §1

Binder | EC50 [1] [nM] | EC50 [2] [µg/mL] | EC50 [3] [nM]
PS3B30 (bispecific antibody, human IgG4 S228P, kappa, lambda, F234A L235A, IgG4 PAA; PSMA arm chains first, then CD3 arm (F405L, R409K); also called PSMB130 x CD3B219) heavy 1: not shown light 1: not shown heavy 2: EVQLVESGGGLVQPGGSLRLSCAASGFTFNTYAMNWVRQAPGKGLEWVARIRSKYNNYATYYAASVKGRFTISRDDSKNSLYLQMNSLKTEDTAVYYCARHGNFGNSYVSWFAYWGQGTLVTVSSASTKGPSVFPLAPCSRSTSESTAALGCLVKDYFPEPVTVSWNSGALTSGVHTFPAVLQSSGLYSLSSVVTVPSSSLGTKTYTCNVDHKPSNTKVDKRVESKYGPPCPPCPAPEAAGGPSVFLFPPKPKDTLMISRTPEVTCVVVDVSQEDPEVQFNWYVDGVEVHNAKTKPREEQFNSTYRVVSVLTVLHQDWLNGKEYKCKVSNKGLPSSIEKTISKAKGQPREPQVYTLPPSQEEMTKNQVSLTCLVKGFYPSDIAVEWESNGQPENNYKTTPPVLDSDGSFLLYSKLTVDKSRWQEGNVFSCSVMHEALHNHYTQKSLSLSLGK light 2: QTVVTQEPSLTVSPGGTVTLTCRSSTGAVTTSNYANWVQQKPGQAPRGLIGGTNKRAPGTPARFSGSLLGGKAALTLSGVQPEDEAEYYCALWYSNLWVFGGGTKLTVLGQPKAAPSVTLFPPSSEELQANKATLVCLISDFYPGAVTVAWKADSSPVKAGVETTTPSKQSNNKYAASSYLSLTPEQWKSHRSYSCQVTHEGSTVEKTVAPTECS | 23.2 | 5.37 | 8.5
PS3B28 (bispecific antibody, human IgG4 S228P, kappa, lambda, F234A L235A, IgG4 PAA; PSMA arm chains first, then CD3 arm (F405L, R409K); also called PSMB128 x CD3B219) heavy 1: not shown light 1: not shown heavy 2: EVQLVESGGGLVQPGGSLRLSCAASGFTFNTYAMNWVRQAPGKGLEWVARIRSKYNNYATYYAASVKGRFTISRDDSKNSLYLQMNSLKTEDTAVYYCARHGNFGNSYVSWFAYWGQGTLVTVSSASTKGPSVFPLAPCSRSTSESTAALGCLVKDYFPEPVTVSWNSGALTSGVHTFPAVLQSSGLYSLSSVVTVPSSSLGTKTYTCNVDHKPSNTKVDKRVESKYGPPCPPCPAPEAAGGPSVFLFPPKPKDTLMISRTPEVTCVVVDVSQEDPEVQFNWYVDGVEVHNAKTKPREEQFNSTYRVVSVLTVLHQDWLNGKEYKCKVSNKGLPSSIEKTISKAKGQPREPQVYTLPPSQEEMTKNQVSLTCLVKGFYPSDIAVEWESNGQPENNYKTTPPVLDSDGSFLLYSKLTVDKSRWQEGNVFSCSVMHEALHNHYTQKSLSLSLGK light 2: QTVVTQEPSLTVSPGGTVTLTCRSSTGAVTTSNYANWVQQKPGQAPRGLIGGTNKRAPGTPARFSGSLLGGKAALTLSGVQPEDEAEYYCALWYSNLWVFGGGTKLTVLGQPKAAPSVTLFPPSSEELQANKATLVCLISDFYPGAVTVAWKADSSPVKAGVETTTPSKQSNNKYAASSYLSLTPEQWKSHRSYSCQVTHEGSTVEKTVAPTECS | 7.08 | 0.688 | 8.1
PS3B20 (bispecific antibody, human IgG4 S228P, kappa, lambda, F234A L235A, IgG4 PAA; PSMA arm chains first, then CD3 arm (F405L, R409K); also called PSMB120 x CD3B219) heavy 1: not shown light 1: not shown heavy 2: EVQLVESGGGLVQPGGSLRLSCAASGFTFNTYAMNWVRQAPGKGLEWVARIRSKYNNYATYYAASVKGRFTISRDDSKNSLYLQMNSLKTEDTAVYYCARHGNFGNSYVSWFAYWGQGTLVTVSSASTKGPSVFPLAPCSRSTSESTAALGCLVKDYFPEPVTVSWNSGALTSGVHTFPAVLQSSGLYSLSSVVTVPSSSLGTKTYTCNVDHKPSNTKVDKRVESKYGPPCPPCPAPEAAGGPSVFLFPPKPKDTLMISRTPEVTCVVVDVSQEDPEVQFNWYVDGVEVHNAKTKPREEQFNSTYRVVSVLTVLHQDWLNGKEYKCKVSNKGLPSSIEKTISKAKGQPREPQVYTLPPSQEEMTKNQVSLTCLVKGFYPSDIAVEWESNGQPENNYKTTPPVLDSDGSFLLYSKLTVDKSRWQEGNVFSCSVMHEALHNHYTQKSLSLSLGK light 2: QTVVTQEPSLTVSPGGTVTLTCRSSTGAVTTSNYANWVQQKPGQAPRGLIGGTNKRAPGTPARFSGSLLGGKAALTLSGVQPEDEAEYYCALWYSNLWVFGGGTKLTVLGQPKAAPSVTLFPPSSEELQANKATLVCLISDFYPGAVTVAWKADSSPVKAGVETTTPSKQSNNKYAASSYLSLTPEQWKSHRSYSCQVTHEGSTVEKTVAPTECS | 23.4 | 2 | 864
